Measured values reported in the nanobody polyreactivity screen of Harvey et al. (2022).

Assay: yeast display, Sf9 membrane polyspecificity reagent, FACS + sequencing; frameworks hold sequencing errors
In short: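 After 36–48 hours of galactose induction, yeast (Saccharomyces cerevisiae BJ5465) displaying a synthetic nanobody library were stained at 4 °C for 1 hour with 10% biotinylated, detergent-solubilized Sf9 membrane reagent. Streptavidin microbeads enriched the stained cells before FACS sorting into low and high (top ~1%) gates on anti-HA and streptavidin fluorescence. Each clone's polyreactivity label reflects its gate of origin.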
With “QVQLVESGGGLVQAGGSLRLSCAASGFIFYKYGMGWYRQAPGKERELVAAINRRGGTTSYADSVKGRFTISRDNAKNTVYLQMNSLKPEDTAVYYCAASAPGGQDDYWGQGTQVTVSS” the “polyreactivity (PSR sort gate)” value was “high polyreactivity”.
For “QVQLVESGGGLVQAGGSLRLSCAASGFIFYKYVMAWYRQAPGKERELVAAINWSGGSTYYADSVKGRFTISRDNAKNTVYLQMNSLKPEDTAVYYCAALSQYRYDYWGQGTQVTVSS”, the “polyreactivity (PSR sort gate)” value was “high polyreactivity”.
For “QVQLVESGGGLVQAGGSLRLSCAASGFIFYLNVMGWYRQAPGKERELVATITSGGSTNYADSVKGRFTISRDNAKNTVYLQMNSLKPEDTAVYYCAAEQVWYDWEYDYWGQGTQVTVSS”, the “polyreactivity (PSR sort gate)” value was “high polyreactivity”.
With “QVQLVESGGGLVQAGGSLRLSCAASGFIFYPNAMGWYRQAPGKERELVAGISWSGTSTYYADSVKGRFTISRDNAKNTVYLQMNSLKPEDTAVYYCNRVFYHFDVDRYDYWGQGTQVTVSS” the “polyreactivity (PSR sort gate)” value was “low polyreactivity”.
With “QVQLVESGGGLVQAGGSLRLSCAASGFIFYPYAMGWYRQAPGKERELVAVITSGGRTYYADSVKGRFTISRDNAKNTVYLQMNSLKPEDTAVYYCAAQYIQAWRLFDYWGQGTQVTVSS” the “polyreactivity (PSR sort gate)” value was “low polyreactivity”.
For “QVQLVESGGGLVQAGGSLRLSCAASGFIFYPYAMGWYRQAPGKEREVVAVITSGGRTYYADSVKGRFTISRDNAKNTVYLQMNSLKPEDTAVYYCAARYGRIHWKANWPEYGYWGQGTQVTVSS”, the “polyreactivity (PSR sort gate)” value was “low polyreactivity”.
With “QVQLVESGGGLVQAGGSLRLSCAASGFIFYQYAMGWYRQAPGKERELVAAISTRGGSTYYADSVKGRFTISRDNAKNTVYLQMNSLKPEDTAVYYCNVLKYLSPGTYDYDYWGQGTQVTVSS” the “polyreactivity (PSR sort gate)” value was “high polyreactivity”.
In the case of “QVQLVESGGGLVQAGGSLRLSCAASGFIFYRKTMGWYRQAPGKERELDAAISVSGGSTNYADSVKGRFTISRDNAKNTVYLQMNSLKPEDTAVYYCAARVRDSLVYGGWDDYWGQGTQVTVSS”, the “polyreactivity (PSR sort gate)” value is reported as “high polyreactivity”.
In the case of “QVQLVESGGGLVQAGGSLRLSCAASGFIFYRNAMGWYRQAPGKERELVAAISGSGGRTYYADSVKGRFTISRDNAKITVYLQMNSLNPEDTAVYYCNAGPLYRGEYDYWGQGTQVTVSS”, the “polyreactivity (PSR sort gate)” value is reported as “high polyreactivity”.
For “QVQLVESGGGLVQAGGSLRLSCAASGFIFYRNAMGWYRQAPGKERELVAAISVDGSTYYADSVKGRFTISRDNAKNTVYLQMNSQKPEDTAVYYCAAEYYSSYYQYVIYGYWGQGTQVTVSS”, the “polyreactivity (PSR sort gate)” value was “low polyreactivity”.
With “QVQLVESGGGLVQAGGSLRLSCAASGFIFYRNTMGWYRQAPGKEREFVAAIRWRGGSTYYADSVKGRFTISRDNAKNTVYLQMNSLKPEDTAVYYCAADSRPVYSGFEYWGQGTQVTVSS” the “polyreactivity (PSR sort gate)” value was “high polyreactivity”.
In the case of “QVQLVESGGGLVQAGGSLRLSCAASGFIFYRNTMGWYRQAPGKEREFVAAIRWRGGSTYYADSVKGRFTISRDNAKNTVYLQMNSLKPEDTAVYYCNALGKPTWYATTYDYWGQGTQVTVSS”, the “polyreactivity (PSR sort gate)” value is reported as “high polyreactivity”.
With “QVQLVESGGGLVQAGGSLRLSCAASGFIFYRNTMGWYRQAPGKESELVAAISRRGGNTYYADSVKGRFTISRDYAKNTVYLQMNSLKPEDTAVYYCNADGNAVYNRVSYDYWGQGTQVTVSS” the “polyreactivity (PSR sort gate)” value was “high polyreactivity”.
For “QVQLVESGGGLVQAGGSLRLSCAASGFIFYRYAMGWYRQAPGKERELVAAISRSGGTTYYADSVKGRFTISRDNAKNTVYLQMNSLKPEDTAVYYCNVKRGTIGGYYYWGQGTQVTVSS”, the “polyreactivity (PSR sort gate)” value was “high polyreactivity”.
In the case of “QVQLVESGGGLVQAGGSLRLSCAASGFIFYRYAMGWYRQAPGKERELVAAISSGGGRTYYADSVKGRFTISRDNAKNTVYLQMNSLKPEDTAVYYCAKGYFWSSYVSSRYGSWGQGTQVTVSS”, the “polyreactivity (PSR sort gate)” value is reported as “high polyreactivity”.
With “QVQLVESGGGLVQAGGSLRLSCAASGFIFYRYAMGWYRQAPGKERELVARISWNGGITYYADSVKGRFTISRDNAKNTVYLQMNILKPEDTAVYYCNKPDPYGLYTYEYWGQGTQVTVSS” the “polyreactivity (PSR sort gate)” value was “low polyreactivity”.
With “QVQLVESGGGLVQAGGSLRLSCAASGFIFYSNAMGWYRQAPGKERELVAAIRSTGSTSYADSVKGRFTISRDNAKNTVYLQMNILKPEDTAVYYCAKVRYWRGYDYWGQGTQVTVSS” the “polyreactivity (PSR sort gate)” value was “high polyreactivity”.
With “QVQLVESGGGLVQAGGSLRLSCAASGFIFYSNAMGWYRQSPGKERELVAGISRGGSTYYADSVKGRFTISRDNAKNTVYLQMNRLKPEDTAVYYCAAKISLGDDYWGQGTQVTVSS” the “polyreactivity (PSR sort gate)” value was “low polyreactivity”.
For “QVQLVESGGGLVQAGGSLRLSCAASGFIFYSSDMGWYRQSPGKERELVAAIDSRGVNTYYADSVKGRFTISRDNAKNTVYLQMNSLKPEDTAVYYCNVDAINWWDWEDFDYWGQGTQVTVSS”, the “polyreactivity (PSR sort gate)” value was “low polyreactivity”.
With “QVQLVESGGGLVQAGGSLRLSCAASGFIFYSYALGWYRQAPGKEREFVASISGRTGSTYYADSVKGRFTISRDNAKNTVYLQMNSLKPEDTAVYYCNARIVHSFRYDYWGQGTQVTVSS” the “polyreactivity (PSR sort gate)” value was “low polyreactivity”.
With “QVQLVESGGGLVQAGGSLRLSCAASGFIFYTYAMGWYRQAPGKERELVAAISRGGRTNYADSVKGRFTISRDNAKNSVYLQMNSLKPEDTAVYYCASSYSHRYDYWGQGTQVTVSS” the “polyreactivity (PSR sort gate)” value was “high polyreactivity”.
In the case of “QVQLVESGGGLVQAGGSLRLSCAASGFIFYYAMGWYRQAPGKERELVAGITESDGSTNYADSVKGRFTISRDNAKNTVYLQMNSLKTEVTAVYYCAKDASSLRFDYWGQGTQVTVSS”, the “polyreactivity (PSR sort gate)” value is reported as “low polyreactivity”.
For “QVQLVESGGGLVQAGGSLRLSCAASGFIFYYNAMGRYRQAPGKERELVATIRGSGGSTYYADSVKGRFTISRDNAKNTVYLQMNSLKPEDTAVYYCATTIYGLTSRLYYWGQGTQVTVSS”, the “polyreactivity (PSR sort gate)” value was “high polyreactivity”.
For “QVQLVESGGGLVQAGGSLRLSCAASGFIFYYNAMGWYRQAPGKERELVAAISASGDRTYYADSVKGRFTISRDNAKNTVYLQMNSLKPEDTAVYYCAARSQGARYSSRRRFGDYWGQGTQVTVSS”, the “polyreactivity (PSR sort gate)” value was “high polyreactivity”.
For “QVQLVESGGGLVQAGGSLRLSCAASGFIFYYNTMGWYRQATGKESELVDSITWSGDTTYYADSVKGRFTISRDNAKKTVYLQMNSLKPEDTAVYYCAAVHYYPYRRYDYWGQGTQVTVSS”, the “polyreactivity (PSR sort gate)” value was “low polyreactivity”.
In the case of “QVQLVESGGGLVQAGGSLRLSCAASGFIFYYYAMGWYRQAPAKERELVAVITSGGSTNYADSVKGRFTISRDNAKNTVYLQMNSLKPEDTAVYYCAARSRRRDDYWGQGTQVTVSS”, the “polyreactivity (PSR sort gate)” value is reported as “high polyreactivity”.
With “QVQLVESGGGLVQAGGSLRLSCAASGFIFYYYAMGWYRQAPGKERELFAAISKSGGSTYYADSVKGRFTISRDHAKNTVYLEMNSLKPEDTAVYYCAGVVTTWPYYGFGYWGQGTQVTVSS” the “polyreactivity (PSR sort gate)” value was “high polyreactivity”.
For “QVQLVESGGGLVQAGGSLRLSCAASGFIFYYYAMGWYRQAPGKERELVAAISVRGGRTYYADSVKGRFTISRDNAKNTVYLQMNSLKPEDTAVYYCAADLYNRGRGSSQSYRTGYDYWGQGTQVTVSS”, the “polyreactivity (PSR sort gate)” value was “high polyreactivity”.
With “QVQLVESGGGLVQAGGSLRLSCAASGFIFYYYAMGWYRQAPGKERELVAAITSGGGTTYYADSVKGRFTISRDNAKNTVYLQMNSLKPEDTAVYYCNADSYYNSWFYYFDGFDGDYWGQGTQVTVSS” the “polyreactivity (PSR sort gate)” value was “high polyreactivity”.
In the case of “QVQLVESGGGLVQAGGSLRLSCAASGFIFYYYTMGWYRQAPGKERELVAAISSSGGRTYYADSVKGRFTISRDNAKNTVYLQMNSLKPEDTAVYYCAALYRWNQFPYFKGGYWGQGTQVTVSS”, the “polyreactivity (PSR sort gate)” value is reported as “high polyreactivity”.
For “QVQLVESGGGLVQAGGSLRLSCAASGFIGWYRQAPGKERELVAAISWRGGRTYYADSVKGRFTISRDNAKNTVYLQMNSLKPEDTAVYYCNAVGNVWGYDSWGQGTQVTVSS”, the “polyreactivity (PSR sort gate)” value was “high polyreactivity”.
With “QVQLVESGGGLVQAGGSLRLSCAASGFIIADYTMGWYRQAPGKERELVAAITRSGDSTYYADSVKGRFTISRDNAKNTVYLQMNSLKPEDTAVYYCNAVNDWYYAYYGVTSFRSYDYWGQGTQVTVSS” the “polyreactivity (PSR sort gate)” value was “low polyreactivity”.
For “QVQLVESGGGLVQAGGSLRLSCAASGFIIAFDNAMGWYRQAPGKERELVAAISSGTTTHYADSVKGRFTISRDNAKNTVYLQMNSLKPEDTAVYYCAADSVKQVRYGNVGHDYWGQGTQVTVSS”, the “polyreactivity (PSR sort gate)” value was “low polyreactivity”.
For “QVQLVESGGGLVQAGGSLRLSCAASGFIIAGYAMGWYRQAHGKEMELVAAISSRGGSTYYADSVKGRFTISRDNAKNTFYLQMNSLKPEDTSVYYCARTTPTGRQYRRYDYWGQGTQVTESS”, the “polyreactivity (PSR sort gate)” value was “low polyreactivity”.
For “QVQLVESGGGLVQAGGSLRLSCAASGFIIAYYAMGWDRQAPGKERELVAAINGGGGSRSYADSVKGRFTISRDNAKNTVYLQMNSLKPEDTAVFYCAADGSDDEENDYWGQGTQVTVSS”, the “polyreactivity (PSR sort gate)” value was “high polyreactivity”.
With “QVQLVESGGGLVQAGGSLRLSCAASGFIIDGYAMGWYRQAPGKERELVAVISQRGSNTYYADSVKGRFTISRDNAKNTVYLQMNSLKPEDTAVYYCAARYKQGDSTGGRMNYWGQGTQVTVSS” the “polyreactivity (PSR sort gate)” value was “high polyreactivity”.
For “QVQLVESGGGLVQAGGSLRLSCAASGFIIDRNAMGWYRQAAGKERELVAAITSRGGSTYYADSVKGRFTISRDNAKNTVYLQMNSLKPEDTAVYYCNAGRRVSTYGYWGPGTQVTVSS”, the “polyreactivity (PSR sort gate)” value was “high polyreactivity”.
With “QVQLVESGGGLVQAGGSLRLSCAASGFIIDSYAMGWYRQAPGKERELVATITKGGGRTYYADSVKGRFTISRDNAKNTVYLQMNSLKPEDTAVYYCNARGFSRRKGLDYWGQGTQVTVSS” the “polyreactivity (PSR sort gate)” value was “low polyreactivity”.
In the case of “QVQLVESGGGLVQAGGSLRLSCAASGFIIGDYAMGWYRQAPGTERELVAAIFSVGSTYYADSVKGRFTISRDNAKNTVYLQMNSLKPEDTAVYYCAARFARYDWSMYYWGQGTQVTVSS”, the “polyreactivity (PSR sort gate)” value is reported as “low polyreactivity”.
With “QVQLVESGGGLVQAGGSLRLSCAASGFIIIGNAMVWYRQAPGKERELVAAISRRGGSTYYADSVKGRFTISRDNAKNTVYLQMNSLKPEDTAVYYCATDPGARVHYPTGDYWGQGTQVTLSS” the “polyreactivity (PSR sort gate)” value was “high polyreactivity”.
With “QVQLVESGGGLVQAGGSLRLSCAASGFIIIGYVMGWYRQAPGKERELVAAITSSGGSTYYADSVKGRFTISRDHAKNTVYLQMNSLKPEDTAVYYCAAEYYLLWSGMEYWGQGTQVTVSS” the “polyreactivity (PSR sort gate)” value was “low polyreactivity”.
In the case of “QVQLVESGGGLVQAGGSLRLSCAASGFIILINVMGGYRQAPGNERELVAVITGGGTTNYADSVKGRFTISRDNAKNTVYLQMYSLKPEDTAVYYCAADWIVVSEFGLDYHMDYWGQGSQVTVSS”, the “polyreactivity (PSR sort gate)” value is reported as “low polyreactivity”.
For “QVQLVESGGGLVQAGGSLRLSCAASGFIILIYAMGWYRQAPGKERELVATIRYSGGRTYYADSVKGRFTISRDNAKNTVFLQMNSLKPEDTAVDYCAADGYPTLYDYWGQGTQVTVSS”, the “polyreactivity (PSR sort gate)” value was “high polyreactivity”.
